This experiment concerns the target T1, gp130-ICD (Homo sapiens, UniProt P40189).
T1 construct: in order to isolate the intracellular portion of human gp130; expressed in transfected cells; host or cells: Saccharomyces cerevisiae strain CG-1945; cDNA obtained by RT-PCR from HepG2 cells and cloned into pGADGH (also pAS2-1)
T1 sequence (P40189 642-918 limits assumed): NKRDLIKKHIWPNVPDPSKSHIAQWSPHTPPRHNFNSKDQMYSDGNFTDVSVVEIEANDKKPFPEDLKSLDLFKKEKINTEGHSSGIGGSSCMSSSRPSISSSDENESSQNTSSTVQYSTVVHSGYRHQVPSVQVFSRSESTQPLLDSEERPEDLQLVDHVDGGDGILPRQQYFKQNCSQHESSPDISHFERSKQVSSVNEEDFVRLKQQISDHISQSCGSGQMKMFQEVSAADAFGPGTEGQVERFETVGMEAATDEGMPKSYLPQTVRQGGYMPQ
Briefly: Liquid β-galactosidase (LacZ) assay in yeast two-hybrid system. The experiment is classed as cell-based. The conditions noted are these: combination of clone E and gp130-ICD in yeast cells; three independent experiments. An excerpt: We have also performed liquid β-galactosidase assays to quantify transcriptional activity: as shown in the FIG. 5, in the presence of gp130-ICD/GAL4AD the fusion protein clone E/GAL4BD was able to produce a transcriptional activity of lacZ gene about 2 to 3 fold higher than in the absence of gp130-ICD/GAL4AD, thus confirming the interaction detected after the first selection.
Liquid β-Galactosidase Assay
We prepared 5-ml overnight culture in liquid SD selection medium appropriate for plasmids.
We transferred 2 ml of the culture to 8 ml of YPD and incubate at 30° C. for 3-5 hours until the cells are in the mid-log phase (O.D.600=0.5-0.8).
The culture was centrifuged at 14,000 rpm for 30 seconds: in the next step, we remove the supernatants, wash the cells with a volume of Z-buffer and resuspend the pellet in 900 μl of Z buffer.
Immediately, two or more freeze/thaw cycles were performed, placing the tubes in liquid nitrogen and in a 37° C. water bath for 0.5-1 minute. […]
The reaction was stopped by adding 0.4 ml of 1 M Na2CO3: we recorded the time needed to obtain the results and O.D.420 of the samples.
β-galactosidase units were calculated by this formula: β-galactosidase units=1,000×O.D.420/(t×V×O.D.600) […]

1 substance from patent US6838433B2, “IL-6 antagonist peptides” (Applied Research Systems ARS Holding N.V., priority 1998, dated 2005) can be followed below.

Take “Clone E: peptide isolated by THS, homology group II, SEQ ID NO:6; homology with JAK1 JH4 domain (WGDNEWWRSEPHKMEL)”: the “β-galactosidase (LacZ) activity in liquid assay” value is on record as “about 3 units/ml”.
